Laboratory results: the supplement of paper PMC9170038

System: MS2 coat protein
Assay: apparent KD of MS2 coat protein; designed switch direction (-1 OFF switch, 1 ON switch): 1; higher = weaker reporter binding
Method in brief: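 Normalised cluster fluorescence was curve-fitted, and each design's median over clusters is its apparent KD. Before this, SNAP-549-labelled MS2 coat protein was titrated from 0.7 or 1.5 nM, doubling to 3 µM, over RNA switches transcribed on Illumina chips by stalled E. coli RNA polymerase. Titrations had no input, 200 uM small-molecule ligand, or an oligonucleotide input, and steps lasted 0.8–1.5 h (lowest) to 10–20 min (highest).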

[1] = Eterna round: R95, input ligand: microRNA oligo, concentration not stated
[2] = input ligand: microRNA oligo, concentration not stated
[3] = Eterna round: R95, input ligand: FMN 200 uM
[4] = Eterna round: R95, input ligand: none

Sequence	apparent KD of MS2 coat protein [1] [nM]	apparent KD of MS2 coat protein (input ligand: FMN 200 uM) [nM]	apparent KD of MS2 coat protein [2] [nM]	apparent KD of MS2 coat protein (input ligand: none) [nM]	apparent KD of MS2 coat protein [3] [nM]	apparent KD of MS2 coat protein [4] [nM]
GUUAUACAUGAGGAUCACCCAUGUCAAUGUAGUCGAGGAUAUGGGUAGCUAUGAGGCGUACUAGAAGGCGAGGAGU [JL-ss1-3.16 ViennaUCT mod] (puzzle: Same State 1)	90.4	–	–	–	–	–
GUUCCAAGGUGAGGAUAUGCAGAGGAUCACCCUGUAGAAGGCAUCAGGUGAGGAUAUGCAGAGGAUCACCCUGUAGAAGGCAUC [pwkr ssNG DX.10] (Eterna round: R96, puzzle: Same State NG 1)	–	105	180	295	–	–
GUUGAGAAAUAAGGAUAUGCAUGGAAGACACAUGAGGAUCACCCAUGUGGGAGGGAAACCAGGAGGUAGAAGGUAUUGGGAAAC [AK SSNG2-V2-23.1] (Eterna round: R96, puzzle: Same State NG 2)	–	43.8	28.7	49.1	–	–
UAAAUGAAGUAAGGAUAUACAUGAGGAUCACUCGUAGAAGGUACUAUACAUGAGGAUCACCCAUGUGCCGGUCAGAAGACUGGA [Mat - Same State NG 1 - JL mod - D6] (Eterna round: R96, puzzle: Same State NG 1)	–	804	533	943	–	–
UAACGCGCAUGCAAGGAUAUGUGCAGAGCUACAUGAGGAUCACCCAUGUGGUUAUGCUAUUGAAAACAGAAGGUGCCCUCGCUCA [Ceties] (Eterna round: R96, puzzle: Same State 2)	–	20.7	16.4	22.7	–	–
UAAGUAUGUUGAGGAUAUUAUGUUUAGUGUGAUGACAUGAGGAUCACCCAUGUGUUAUGAGUUUUUAAGAAGGCAACAUACUUA [JR_SSNG2_Sub091] (Eterna round: R96, puzzle: Same State NG 2)	–	35.1	41.7	55.2	–	–
UACAAUCUAUCUGAGGAUAUCAUGAACAAAACAUGAGGAUCACCCAUGUGCAGGAAAACUGCAUAUGAGAAGGCAGAUAGAUUGU [Mat - Same State 2 - Mod - D22] (puzzle: Same State 2)	1560	–	–	–	51	876
UACAAUCUAUCUGAGGAUAUCAUGAAUAUAACAUGAGGAUCACCCAUGUGCAGGAAAACUGCAUAUGAGAAGGCAGAUAGAUUGU [salish99_ss2_r3_068] (puzzle: Same State 2)	49.2	–	–	–	61.3	109
UACAAUCUAUCUGAGGAUAUCAUGAAUUAUACAUGAGGAUCACCCAUGUGCAGGAAAACUGCAUAUGAGAAGGCAGAUAGAUUGU [salish99_ss2_r3_062] (puzzle: Same State 2)	43.6	–	–	–	63.4	183
UACAAUCUAUCUGAGGAUAUCAUGAUUGUAACAUGAGGAUCACCCAUGUGCAGGAAAACUGCAUAUGAGAAGGCAGAUAGAUUGU [salish99_ss2_r3_071] (puzzle: Same State 2)	78	–	–	–	113	708
UACAUGAGGAUCACCCAUGUAGUCCAUGCACCGGACCGAAGCGAGGAUAUGGUCUGCAUCGGUGGCCAGAAGGCGCUUCCAGAA [Eternabot solution 26] (Eterna round: R96, puzzle: Same State NG 3)	–	24.7	21.3	46.7	–	–
UAGACAAGCUUUAUGUUCUUCCUUUUCCUACAUGAGGAUCACCCAUGUAGUCUGUCGAUUGAGAGAGUAGUUGAGAA [JR_SHM208A_Sub024] (puzzle: Sensor for hsa-mir-208a)	16.5	–	–	–	17.8	18.2
UAGAGAGGAAGCGAGGAUAUCGUGGGAGGAACAUGAGGAUCACCCAUGUGUGAUGUUGAGAGGGACGAGAAGGCGCUGGAAAUUA [JR_SS2_Sub081] (puzzle: Same State 2)	126	–	–	–	99.1	174
UAGAGAGGAAGCGAGGAUAUCGUGUUAGGUACAUGAGGAUCACCCAUGUUGUAGGUAGAGGUAGGCGAGAAGGCGCAGGAGAGGG [JR_SS2_Sub093] (puzzle: Same State 2)	47.1	–	–	–	56.3	83.8
UAGAGAGGAAGCGAGGAUAUCGUGUUAGGUACAUGAGGAUCACCCAUGUUUUAAGUAGAGAUAGGCGAGAAGGCGCAGGAGAAAA [JR_SS2_Sub088] (puzzle: Same State 2)	26.7	–	–	–	28.6	30.2
UAGAUUAGAAGUUAACAUGAGGAUCACCCAUGUAUUGGAACAGAGGAUAUGCAUGUUUGAUAGUAGCAGAAGGCUGAAGGUGGA [JR_SSNG3_Sub025] (Eterna round: R96, puzzle: Same State NG 3)	–	–	68.4	–	–	–
UAGCUCGUGUGAGGAUAUGCCGCCGUUUCGGCUGCAGAAGGUGCUACGUUACAUGAGGAUCACCCAUGUCUCUGUUGUUUCGUC [salish99_SSNG1_r04_955] (Eterna round: R96, puzzle: Same State NG 1)	–	–	23.9	–	–	–
UAGUACAAGCUUUUUGCUUGUCUUAUUUAACAUGAGGAUCACCCAUGUAAGUUGAAAGUUAGAGAGUGCAGGUUGAA [JR_SHM208A_Sub051] (puzzle: Sensor for hsa-mir-208a)	21.9	–	–	–	16.8	17.1
UAGUACAUGCUUUUUGUCCGUCUUAGAUAACAUGAGGAUCACCCAUGUAAGGUGAAAGUUAUAUAGUUUAGGAAGAU [JR_SHM208A_Sub056] (puzzle: Sensor for hsa-mir-208a)	424	–	–	–	309	331
UAGUACAUGCUUUUUGUCUGUCUUAGAUCACAUGAGGAUCACCCAUGUUUGGUGAAAGUUAUUUUGUUUAUGACUAU [JR_SHM208A_Sub060] (puzzle: Sensor for hsa-mir-208a)	194	–	–	–	257	430
UAGUAUUAACGAGGAUAUAAUAUGUUCAAUUUUUUAUAUUGUUUACAUGAGGAUCACCCAUGUUAUUAGAAGGCGUAUGGGAUU [JR_SSNG2_Sub082] (Eterna round: R96, puzzle: Same State NG 2)	–	–	50.9	–	–	–
UAGUGCAUUAGAGGAUAUUCUUACGACACGAGUAAGACAUGAGGAUCACCCAUGUCGUGACAUGGGAAGAAGGCUGAUGUGCUA [Omei SS(NG)2 Bv6] (Eterna round: R96, puzzle: Same State NG 2)	–	12	27.1	35.8	–	–
UAGUGCUGUUGAGAGGAUAUGCGGCGACGGACAUGAGGAUCACCCAUGUUAGCGACAGCGUUGCGGCAGAAGGCUCUGCCCGCUA [Soteed Omei mod 52] (puzzle: Same State 2)	27.4	–	–	–	13.1	33.3
UAUCCAUAGAUAGGAUAUUAGAGAACAUGAGGAUCACCCAUGUUUGGCUUGGUUUUAAGCCAAUCUAAGAAGGAUCUUGAUGAA [SameState NG2 #10] (Eterna round: R96, puzzle: Same State NG 2)	–	22.1	66.5	72.1	–	–
UAUGAAUUGCAAGGAUAUUGAUAACAUGAGGAUCACCCAUGUAAUUGAUCGAGUUAGAUCAGUUACAAGAAGGUGCUAUUGAUU [JR_SSNG2_Sub036] (Eterna round: R96, puzzle: Same State NG 2)	–	534	24.5	90.7	–	–
UAUUCAUUCAGAGGAUAUUGUUUAUCUCUAUUUCAAGAAGGCUGAUUUUACUACUUACUUAUGAAACAUGAGGAUCACCCAUGU [JR_SSNG1_Sub020] (Eterna round: R96, puzzle: Same State NG 1)	–	–	18.7	–	–	–
UAUUUAAUCAUAGGAUAUAGUGUGUAAUUUGGACUAGAAGGAUGUAACAUGAGGAUCACCCAUGUGGUAAAUGGGAUACAUUCC [JR_SSNG1_Sub099] (Eterna round: R96, puzzle: Same State NG 1)	–	–	91.9	–	–	–
UCAGUCAUGUAAGGAUAUGCAGCCGAAACGGCUGCAGAAGGUACUAUAAUUACAUGAGGAUCACCCAUGUUAUAAAUAAAAUAU [Mat - Same State NG 1 - JL mod - D66] (Eterna round: R96, puzzle: Same State NG 1)	–	23.1	43	62.6	–	–
UCGGGCUCUGCUCGUCUUGAGUUGCUCCCACAUGAGGAUCACCCAUGUAGUGUGCCUAUCAGCGCGCGGGUGACUUU [Riesonso] (puzzle: Sensor for hsa-mir-208a)	133	–	–	–	328	350
